Measurements published in patent publication US20200165312A1, “COSMETIC COMPOSITION FOR IMPROVING SKIN CONDITIONS COMPRISING FUSION PROTEIN INCLUDING SKIN PENETRATION ENHANCING PEPTIDE” (LG HOUSEHOLD & HEALTH CARE LTD., priority 2017, published 2020).

Columns and labels:
dermal fibroblasts = assay: Hyaluronic acid (HA) production in dermal fibroblasts (ELISA); type: cell-based, human; conditions: two days
Procedure: Specifically, dermal fibroblasts were inoculated onto a 24-well plate and cultured for 24 hours to obtain cultures having a saturation degree of 70 to 80%. The cultures were washed with PBS and cultured in a serum-free DMEM medium including 10 ng/mL T-PDGFa or PDGFa for two days. A supernatant was obtained therefrom and the amount of hyaluronic acid (HA) produced and released in the culture solution was quantitively analyzed using an ELISA kit (R&D Systems) (Table 5).
Specifically, dermal fibroblasts were inoculated onto a 24-well plate and cultured for 24 hours to obtain cultures having a saturation degree of 70 to 80%. […] A supernatant was obtained therefrom and the amount of hyaluronic acid (HA) produced and released in the culture solution was quantitively analyzed using an ELISA kit (R&D Systems) (Table 9).

[1] = system: human umbilical vein endothelial cells; assay: Endothelial cell proliferation, Cell Counter Kit-8; type: cell-based
Procedure: Specifically, human umbilical vein endothelial cells were inoculated onto a 96-well plate and cultured for 24 hours to obtain cultures at a density of 5,000 cells per well. The cultures were washed with PBS and cultured in a serum-free M199 medium for 16 hours. […] The cultures were obtained therefrom and a difference between proliferated amounts of cells was quantitively analyzed using the Cell Counter Kit-8 (Dojindo).
Specifically, human umbilical vein endothelial cells were inoculated onto a 96-well plate and cultured for 24 hours to obtain cultures at a density of 5,000 cells per well. The cultures were washed with PBS and cultured in a serum-free M199 medium for 16 hours. The cells were washed with PBS again and cultured in a serum-free M199 medium supplemented with 100 ng/mL T-Tβ4 or Tβ4 for one day. The cultures were obtained therefrom and a difference between proliferated amounts of cells was quantitively analyzed using the Cell Counter Kit-8 (Dojindo). Here, human umbilical vein endothelial cells cultured in a serum-free M199 medium without T-Tβ4 or Tβ4 were used as a control (Table 22).

[2] = Skin retentivity of growth factor fusion proteins (porcine skin disrupted, ELISA); type: in vitro ADME; conditions: for Remaining amount (%): skin after 16 hours penetration test; for skin retentivity higher than the unfused protein: summary of Tables 8, 13, 17, 21, 25
Procedure: Specifically, the porcine skin remained after the experiment of Example 3-2-4 was recovered, frozen in liquid nitrogen, and disrupted. An amount of PDGFa or T-PDGFa contained therein was quantitatively analyzed using the ELISA kit (R&D Systems). In addition, a relative amount of T-PDGFa to PDGFa was calculated as a remaining amount (Table 8).
Specifically, the porcine skin remained after the experiment of Example 3-3-4 was recovered, frozen in liquid nitrogen, and disrupted. An amount of VEGF or T-VEGF contained therein was quantitatively analyzed using the ELISA kit (R&D Systems).
Specifically, the porcine skin remained after the experiment of Example 3-4-4 was recovered, frozen in liquid nitrogen, and disrupted. An amount of IGF-1 or T-IGF-1 contained therein was quantitatively analyzed using the ELISA kit (R&D Systems). In addition, a relative amount of T-IGF-1 to IGF-1 was calculated as a remaining amount (Table 17).
Specifically, the porcine skin remained after the experiment of Example 3-5-3 was recovered, frozen in liquid nitrogen, and disrupted. An amount of KGF or T-KGF contained therein was quantitatively analyzed using the ELISA kit (R&D Systems). In addition, a relative amount of T-KGF to KGF was calculated as a remaining amount (Table 21).
Specifically, the porcine skin remained after the experiment of Example 3-6-3 was recovered, frozen in liquid nitrogen, and disrupted. An amount of Tβ4 or T-Tβ4 contained therein was quantitatively analyzed using the ELISA kit (R&D Systems). In addition, a relative amount of T-Tβ4 to Tβ4 was calculated as a remaining amount (Table 25).

skin keratinocytes = assay: Keratinocyte growth (skin barrier strengthening), Cell Counter Kit-8; type: cell-based; conditions: for Production (%) (keratinocyte growth): 100 ng/mL T-KGF or KGF, one day, control = 100
Procedure: Specifically, skin keratinocytes were cultured in a 96-well plate for one day to obtain cultures at a density of 6,000 cells per well. The cultures were washed with PBS and cultured in a serum-free DMEM medium for one day. The cells were washed with PBS again and cultured in a serum-free DMEM medium supplemented with 100 ng/mL T-IGF-1 or IGF-1 for one day. The cultures were obtained therefrom and a difference between proliferated amounts of cells was quantitively analyzed using the Cell Counter Kit-8 (Dojindo). Here, skin keratinocytes cultured in a serum-free DMEM medium without T-IGF-1 or IGF-1 were used as a control (Table 14).
Specifically, skin keratinocytes were cultured in a 96-well plate for 24 hours to obtain cultures at a density of 6,000 cells per well.
The cultures were washed with PBS and cultured in a serum-free DMEM medium for one day. The cells were washed with PBS again and cultured in a serum-free DMEM medium supplemented with 100 ng/mL T-KGF or KGF for one day. The cultures were obtained therefrom and a difference between proliferated amounts of cells was quantitively analyzed using the Cell Counter Kit-8 (Dojindo). Here, skin keratinocytes cultured in a serum-free DMEM medium without T-KGF or KGF were used as a control (Table 18).

| Molecule | Production (%) of hyaluronic acid (HA) (dermal fibroblasts; 10 ng/mL T-VEGF or VEGF, control = 100) | hyaluronic acid producing effect compared with the unfused protein (dermal fibroblasts; 10 ng/mL) | Proliferation (%) ([1]; 100 ng/mL T-VEGF or VEGF, serum-free M199, one day, control = 100) | cell proliferation effect compared with the unfused protein ([1]; human umbilical vein endothelial cells, 100 ng/mL) | Remaining amount (%) ([2]; relative to VEGF) | skin retentivity higher than the unfused protein [2] | Production (%) (keratinocyte growth) (skin keratinocytes) | effect in keratinocyte growth test compared with the unfused protein (skin keratinocytes; skin keratinocytes, 100 ng/mL) | Remaining amount (%) ([2]; relative to KGF) |
| --- | --- | --- | --- | --- | --- | --- | --- | --- | --- |
| T-VEGF: SEQ ID NO: 1 peptide C-terminal linked to N-terminal of VEGF via GG linker (protein, Synthetic Fusion protein of T-VEGF) NGSLNTHLAPILGGAPMAEGGGQNHHEVVKFMDVYQRSYCHPIETLVDIFQEYPDEIEYIFKPSCVPLMRCGGCCNDEGLECVPTEESNITMQIMRIKPHQGQHIGEMSFLQHNKCECRPKKDRARQENPCGPCSERRKHLFVQDPQTCKCSCKNTDSRCKARQLELNERTCRCDKPRR | 230 ± 18% | same level | 185 ± 15% | same level | 9,800 ± 790% | about 100 times | – | – | – |
| T-KGF: SEQ ID NO: 1 peptide C-terminal linked to N-terminal of KGF via GG linker (protein, Synthetic Fusion protein of T-KGF) NGSLNTHLAPILGGCNDMTPEQMATNVNCSSPERHTRSYDYMEGGDIRVRRLFCRTQWYLRIDKRGKVKGTQEMKNNYNIMEIRTVAVGIVAIKGVESEFYLAMNKEGKLYAKKECNEDCNFKELILENHYNTYASAKWTHNGGEMFVALNQKGIPVRGKKTKKEQKTAHFLPMAIT | – | – | – | – | – | about 100 times | 590 ± 27% | same level | 9,700 ± 850% |
| KGF: keratinocyte growth factor having an amino acid sequence of SEQ ID NO: 44 (protein, Human KGF) CNDMTPEQMATNVNCSSPERHTRSYDYMEGGDIRVRRLFCRTQWYLRIDKRGKVKGTQEMKNNYNIMEIRTVAVGIVAIKGVESEFYLAMNKEGKLYAKKECNEDCNFKELILENHYNTYASAKWTHNGGEMFVALNQKGIPVRGKKTKKEQKTAHFLPMAIT | – | – | – | – | – | – | 620 ± 25% | – | 100 ± 17% |
